Publication PMC7531523

Tests used:
[1] = biological target: epOX40.24.2 scFv displayed on yeast (human); experiment: flow cytometry on cells
[2] = biological target: epOX40.24.1 scFv displayed on yeast (human); experiment: flow cytometry on cells
[3] = biological target: rOX40.24.2 scFv displayed on yeast (human); experiment: flow cytometry on cells
[4] = biological target: rOX40.24.1 scFv displayed on yeast (human); experiment: flow cytometry on cells
[5] = biological target: epOX40.24.1 full-length human IgG1 (human); experiment: BLI
[6] = biological target: epOX40.24.2 full-length human IgG1 (human); experiment: BLI
[7] = biological target: rOX40.24.2 full-length human IgG1 (human); experiment: BLI

B1: tumor necrosis factor receptor superfamily member 4 (OX40), extracellular, soluble portion (domain or fragment)
chain: LHCVGDTYPSNDRCCHECRPGNGMVSRCSRSQNTVCRPCGPGFYNDVVSSKPCKPCTWCNLRSGSERKQLCTATQDTVCRCRAGTQPLDSYKPGVDCAPCPPGHFSPGDNQACKPWTNCTLAGKHTLQPASNSSDAICEDRDPPATQPQETQGPPARPITVQPTEAWPRTSQGPSTRPVEVPGGRA
modifications: biotin (Sulfo-NHS-LC-biotin) for staining of yeast; not stated for BLI and SPR
B1 showed a Kd [1] of 7.9 nM, a Kd [2] of 3.8 nM and a Kd [3] of 2 nM. The Kd [4] was 2.2 nM, the Kd [5] was 14.4 nM and the Kd [6] was 3.8 nM. It also gave a Kd [7] of 6.9 nM.
